IntAct's records for PubMed 17568776

B1: RING finger and CHY zinc finger domain-containing protein 1 (Homo sapiens), Q96PM5 (parent)
chain: MAATAREDGASGQERGQRGCEHYDRGCLLKAPCCDKLYTCRLCHDNNEDHQLDRFKVKEVQCINCEKIQHAQQTCEECSTLFGEYYCDICHLFDKDKKQYHCENCGICRIGPKEDFFHCLKCNLCLAMNLQGRHKCIENVSRQNCPICLEDIHTSRVVAHVLPCGHLLHRTCYEEMLKEGYRCPLCMHSALDMTRYWRQLDDEVAQTPMPSEYQNMTVDILCNDCNGRSTVQFHILGMKCKICESYNTAQAGGRRISLDQQ

Variants of: B1
Settings: with kcc2a_human CAMK2A

effect of a mutation on the interaction | Variant
disrupting interaction | S155A
disrupting interaction | T154A
